Measurements reported in PMC7952604, “Structural insights into phosphatidylethanolamine formation in bacterial membrane biogenesis” (Scientific Reports, 2021).
Each block holds one molecule with its values, some of them ahead of it. Square brackets hold non-standard residues; d marks the D form. Ends that are not written are not given here. * marks the point of attachment. Pyruvoyl = CC(=O)C(=O)*

B3: E. coli phosphatidylserine decarboxylase (PSD) β-subunit, from PSD_(1–287) (domain or fragment, Escherichia coli, UniProt P0A8K1 1-253, looked up)
chain: MLNSFKLSLQYILPKLWLTRLAGWGASKRAGWLTKLVIDLFVKYYKVDMKEAQKPDTASYRTFNEFFVRPLRDEVRPIDTDPNVLVMPADGVISQLGKIEEDKILQAKGHNYSLEALLAGNYLMADLFRNGTFVTTYLSPRDYHRVHMPCNGILREMIYVPGDLFSVNHLTAQNVPNLFARNERVICLFDTEFGPMAQILVGATIVGSIETVWAGTITPPREGIIKRWTWPAGENDGSVALLKGQEMGRFKLG
notes: Made as one proenzyme chain (residues 1-287 with a C-terminal His6 tag) that cuts itself; the β-chain is the N-terminal product; also called β-chain; beta chain; source: E. coli BL21(DE3), DDM-solubilised, purified (HisTrap, SEC) as auto-cleaved PSD_(1–287)

Tests used:
PSD1–287 [1] = target: T1, PSD1–287 (Escherichia coli, UniProt P0A8K1); assay: Schiff base reduction with NaCNBH3, MALDI-TOF; format: binding; settings: 1 mM lipid, 50 mM NaCNBH3, 37 °C, 14 h, pH 7.5, covalent, decarboxylated
T1 construct: gene psd

PSD1–322 [2] = target: T2, PSD1–322 (Escherichia coli, UniProt P0A8K1, H144A); assay: Schiff base reduction with NaCNBH3, MALDI-TOF; format: binding; settings: 1 mM lipid, 50 mM NaCNBH3, 37 °C, 15 h; covalent; active site Pvl-254
T2 construct: gene psd; full length (1-322), C-terminal His6 tag, auto-cleaved 253/254 with Ser254 turned to pyruvoyl, expressed in E. coli BL21(DE3), solubilised in DDM
T2 sequence (P0A8K1 254-322): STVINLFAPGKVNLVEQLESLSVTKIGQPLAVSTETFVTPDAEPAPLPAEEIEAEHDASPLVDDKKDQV
T2 sequence (P0A8K1 1-253 H144A): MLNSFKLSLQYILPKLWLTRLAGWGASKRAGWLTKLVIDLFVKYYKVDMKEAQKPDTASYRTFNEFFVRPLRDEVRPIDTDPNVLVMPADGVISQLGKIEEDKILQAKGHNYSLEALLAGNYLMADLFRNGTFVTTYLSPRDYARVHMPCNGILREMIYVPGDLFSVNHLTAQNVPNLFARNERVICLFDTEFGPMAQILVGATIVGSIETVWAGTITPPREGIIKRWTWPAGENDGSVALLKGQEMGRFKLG

PSD1–322 [3] = target: T3, PSD1–322 (Escherichia coli, UniProt P0A8K1, H144N); assay: Schiff base reduction with NaCNBH3, MALDI-TOF; format: binding; settings: 1 mM lipid, 50 mM NaCNBH3, 37 °C, 15 h; covalent; active site Pvl-254
T3 construct: gene psd; full length (1-322), C-terminal His6 tag, auto-cleaved 253/254 with Ser254 turned to pyruvoyl, expressed in E. coli BL21(DE3), solubilised in DDM
T3 sequence (P0A8K1 1-253 H144N): as the sequence (P0A8K1 1-253 H144A) above, with A144N counted along it
T3 sequence (P0A8K1 254-322): as the sequence (P0A8K1 254-322) above

PSD1–287 [4] = target: T1, PSD1–287; assay: X-ray structure ([…] Å); NaCNBH3 reduction, MALDI-TOF; format: binding; settings: 1 mM lipid, 50 mM NaCNBH3, 37 °C, 14 h, pH 7.5; covalent; reduced Schiff base to Pvl-254
[5] = target: B3; assay: crystal structure; PE-conjugated PSD_(1–287) in DDM; sitting drop vapor diffusion at 20 °C; 8PE-PSD (2.12 Å) and 10PE-PSD (2.70 Å); settings: both partners purified
[6] = target: B3; assay: crystal structure; apo PSD_(1–287) in DDM; sitting drop vapor diffusion at 20 °C; two crystal forms, Apo-PSD1 (1.90 Å) and Apo-PSD2 (2.63 Å); settings: both partners purified
[7] = target: the molecule itself; assay: as above
[8] = target: the molecule itself; assay: crystal structure; PE-conjugated PSD_(1–287) in DDM; sitting drop vapor diffusion at 20 °C; 8PE-PSD (2.12 Å) and 10PE-PSD (2.70 Å)

% conjugation (PSD1–287 [1]; trapped as 10PE adduct of Pvl-254): 97%
Molecule: CCCCCCCCCC(=O)OC[C@H](COP(=O)(O)OC[C@H](N)C(=O)O)OC(=O)CCCCCCCCC [10PS, 10:0/10:0 PS]

% conjugation (PSD1–287 [1]; trapped as 14PE adduct of Pvl-254): 94%
Molecule: CCCCCCCCCCCCCC(=O)OC[C@H](COP(=O)(O)OC[C@H](N)C(=O)O)OC(=O)CCCCCCCCCCCCC [14PS, 14:0/14:0 PS]

binding result [5]: binds
B1: E. coli PSD α-subunit, from PSD_(1–287), conjugated with 8:0/8:0 PE (domain or fragment, Escherichia coli, UniProt P0A8K1 254-287, looked up)
chain: [Pyruvoyl]TVINLFAPGKVNLVEQLESLSVTKIGQPLAVST
modifications: not fully specified (residue 1); also: 8:0/8:0 PE linked to Pvl-254 by reduced Schiff base
notes: α-chain of E. coli phosphatidylserine decarboxylase, residues 254-287 of the construct PSD_(1–287); also called 8PE-conjugated α-chain; source: E. coli BL21(DE3), purified PSD_(1–287), conjugated with 8PE by NaCNBH3-dependent reduction of the Schiff base

binding result [6]: binds
B2: E. coli phosphatidylserine decarboxylase (PSD) α-subunit, from PSD_(1–287), apo (domain or fragment, Escherichia coli, UniProt P0A8K1 254-287, looked up)
chain: [Pyruvoyl]TVINLFAPGKVNLVEQLESLSVTKIGQPLAVST
notes: No removal of the His6 tag is described; also called α-chain; alpha chain; source: E. coli BL21(DE3), DDM-solubilised, purified (HisTrap, SEC) as auto-cleaved PSD_(1–287)

binding result [5]: binds
B7: E. coli PSD α-subunit, from PSD_(1–287), conjugated with 10:0/10:0 PE (domain or fragment, Escherichia coli, UniProt P0A8K1 254-287, looked up)
chain: [Pyruvoyl]TVINLFAPGKVNLVEQLESLSVTKIGQPLAVST
modifications: not fully specified (residue 1); also: 10:0/10:0 PE linked to Pvl-254 by reduced Schiff base
notes: α-chain of E. coli phosphatidylserine decarboxylase, residues 254-287 of the construct PSD_(1–287); also called 10PE-conjugated α-chain

The next lines start with the molecule.

Molecule: CCCCCCCC(=O)OC[C@H](COP(=O)(O)OCCN)OC(=O)CCCCCCC [8PE, 8:0/8:0 PE]
Schiff base reduction with NaCNBH3, MALDI-TOF (PSD1–322 [2]): these proteins were able to form an adduct with 8PE, albeit at a reduced efficiency
Schiff base reduction with NaCNBH3, MALDI-TOF (PSD1–322 [3]): these proteins were able to form an adduct with 8PE, albeit at a reduced efficiency
% conjugation (PSD1–287 [4]): 98%

Molecule: B3
binding result [7]: binds

B4: 10PE-PSD: αβ-heterodimer of E. coli PSD_(1–287) with 10:0/10:0 PE linked to Pvl-254 (complex, Escherichia coli)
chain 1: MLNSFKLSLQYILPKLWLTRLAGWGASKRAGWLTKLVIDLFVKYYKVDMKEAQKPDTASYRTFNEFFVRPLRDEVRPIDTDPNVLVMPADGVISQLGKIEEDKILQAKGHNYSLEALLAGNYLMADLFRNGTFVTTYLSPRDYHRVHMPCNGILREMIYVPGDLFSVNHLTAQNVPNLFARNERVICLFDTEFGPMAQILVGATIVGSIETVWAGTITPPREGIIKRWTWPAGENDGSVALLKGQEMGRFKLG
chain 2: STVINLFAPGKVNLVEQLESLSVTKIGQPLAVST
modifications: 10:0/10:0 PE covalently linked to the pyruvoyl residue Pvl-254 (reduced Schiff base)
notes: β-chain of E. coli phosphatidylserine decarboxylase, residues 1-253; α-chain of E. coli phosphatidylserine decarboxylase, residues 254-287
stoichiometry N [8]: 2 αβ-heterodimers

B5: 8PE-PSD: αβ-heterodimer of E. coli PSD_(1–287) with 8:0/8:0 PE linked to Pvl-254 (complex, Escherichia coli)
chain 1: MLNSFKLSLQYILPKLWLTRLAGWGASKRAGWLTKLVIDLFVKYYKVDMKEAQKPDTASYRTFNEFFVRPLRDEVRPIDTDPNVLVMPADGVISQLGKIEEDKILQAKGHNYSLEALLAGNYLMADLFRNGTFVTTYLSPRDYHRVHMPCNGILREMIYVPGDLFSVNHLTAQNVPNLFARNERVICLFDTEFGPMAQILVGATIVGSIETVWAGTITPPREGIIKRWTWPAGENDGSVALLKGQEMGRFKLG
chain 2: STVINLFAPGKVNLVEQLESLSVTKIGQPLAVST
modifications: 8:0/8:0 PE covalently linked to the pyruvoyl residue Pvl-254 (reduced Schiff base)
notes: β-chain of E. coli phosphatidylserine decarboxylase, residues 1-253; α-chain of E. coli phosphatidylserine decarboxylase, residues 254-287; source: E. coli BL21(DE3), purified PSD_(1–287), conjugated with 8PE by NaCNBH3-dependent reduction of the Schiff base
stoichiometry N [8]: 2 αβ-heterodimers

B6: E. coli PSD_(1–287) αβ-heterodimer, apo (complex, Escherichia coli)
chain 1: MLNSFKLSLQYILPKLWLTRLAGWGASKRAGWLTKLVIDLFVKYYKVDMKEAQKPDTASYRTFNEFFVRPLRDEVRPIDTDPNVLVMPADGVISQLGKIEEDKILQAKGHNYSLEALLAGNYLMADLFRNGTFVTTYLSPRDYHRVHMPCNGILREMIYVPGDLFSVNHLTAQNVPNLFARNERVICLFDTEFGPMAQILVGATIVGSIETVWAGTITPPREGIIKRWTWPAGENDGSVALLKGQEMGRFKLG
chain 2: STVINLFAPGKVNLVEQLESLSVTKIGQPLAVST
modifications: pyruvoyl residue (Pvl-254) at the N-terminus, formed from Ser-254 on auto-cleavage
notes: β-chain of E. coli phosphatidylserine decarboxylase, residues 1-253; α-chain of E. coli phosphatidylserine decarboxylase, residues 254-287; The unit that pairs with itself into the (αβ)2 heterotetramer; also called Apo-PSD1; Apo-PSD2; source: E. coli BL21(DE3), DDM-solubilised, purified (HisTrap, SEC)
stoichiometry N [7]: 2 αβ-heterodimers
